Experimental data as given in patent US20110117082A1 (SHANGHAI FUDAN ZHANGJIANG BIO PHARMACEUTICAL, published 2011).

B1: wild-type soluble human TNFRp75:Fc fusion protein (ENBREL from AMGEN) (Fc fusion, not shown: a dimerising Fc or GST)
chain: LPAQVAFTPYAPEPGSTCRLREYYDQTAQMCCSKCSPGQHAKVFCTKTSDTVCDSCEDSTYTQLWNWVPECLSCGSRCSSDQVETQACTREQNRICTCRPGWYCALSKQEGCRLCAPLRKCRPGFGVARPGTETSDVVCKPCAPGTFSNTTSSTDICRPHQICNVVAIPGNASMDAVCTSTSPTRSMAPGAVHLPQPVSTRSQHTQPTPEPSTAPSTSFLLPMGPSPPAEGSTGD
B2: LT28-171 (lymphotoxin) (ligand, UniProt P01374 62-205, looked up)
chain: KPAAHLIGDPSKQNSLLWRANTDRAFLQDGFSLSNNSLLVPTSGIYFVYSQVVFSGKAYSPKATSSPLYLAHEVQLFSSQYPFHVPLLSSQKMVYPGLQEPWLHSMYHGAAFQLTQGDQLSTHTDGIPHLVLSPSTVFFGAFAL
notes: range 28-171; these probably count on the mature protein (171 residues), not on the precursor

Columns and labels:
[1] = target: T1, LT28-171 (lymphotoxin) (UniProt P01374); assay: cell-based or functional assay
T1 sequence (looked up): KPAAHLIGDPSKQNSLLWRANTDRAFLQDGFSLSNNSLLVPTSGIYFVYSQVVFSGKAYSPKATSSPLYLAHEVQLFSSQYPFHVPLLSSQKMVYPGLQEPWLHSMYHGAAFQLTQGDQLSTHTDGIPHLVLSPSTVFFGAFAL

[2] = target: tumor necrosis factor α (TNFα) (UniProt P01375); assay: cell-based or functional assay
[3] = target: B2; assay: cell-based or functional assay
[4] = target: B1; assay: SPR, Biacore3000, receptor:Fc amine-coupled to CM5 chip, ligand in flow, 1:1 Langmuir fit
Method: The interaction of the receptor and the ligand was measured in kinetics assay using Wizard of Biacore3000. All the ligands were applied at a flow rate of 40 μL/min for 1 min, dissociated for 2 min, and then 50 mM NaOH and HBS-P buffer were applied at a flow rate of 100 μL/min for 15s and 60s to regenerate the ligands (50 mM NaOH and HBS-P buffer were applied at a flow rate of 100 μL/min for 10s and 30s to regenerate in the primary screening). The experimental data were fit to the 1:1 Langmuir association model in the analysis software of Biacore3000 to provide the specific kinetic constant.

tumor necrosis factor α (TNFα), sequence (P01375 77-233 limits assumed): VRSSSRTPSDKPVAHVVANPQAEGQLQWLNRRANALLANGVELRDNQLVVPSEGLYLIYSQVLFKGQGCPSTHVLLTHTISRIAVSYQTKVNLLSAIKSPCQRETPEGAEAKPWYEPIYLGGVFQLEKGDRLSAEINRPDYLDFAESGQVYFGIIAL

Question: What does the source list for TNFRp75 (E92A): Fc fusion protein?
Answer: EC50(ng/ml) of the neutralizing activity of the mutants against LT [1]: 7.93 ng/mL; Enhancement of the neutralizing activity against LT [1]: 291%; EC50(ng/ml) of the neutralizing activity of the mutants (Example 9: against the cytotoxicity of TNFα) [2]: 6.34 ng/mL; Enhancement of the neutralizing activity against TNFα [2]: 130%

Question: For TNFRp75 (E92H): Fc fusion protein, which EC50(ng/ml) of the neutralizing activity of the mutants against LT [1] is on record?
Answer: The EC50(ng/ml) of the neutralizing activity of the mutants against LT was 3.74 ng/mL.

Question: And the Enhancement of the neutralizing activity against LT [1]?
Answer: Its Enhancement of the neutralizing activity against LT is 1180%.

Question: And the EC50(ng/ml) of the neutralizing activity of the mutants (Example 9: against the cytotoxicity of TNFα) [2]?
Answer: The EC50(ng/ml) of the neutralizing activity of the mutants (Example 9: against the cytotoxicity of TNFα) was 9.03 ng/mL.

Question: What about the Enhancement of the neutralizing activity against TNFα [2] of the same molecule?
Answer: The Enhancement of the neutralizing activity against TNFα was 129%.

Question: TNFRp75 (E92N): Fc fusion protein was tested. Which EC50(ng/ml) of the neutralizing activity of the mutants against LT [1] did it give?
Answer: The EC50(ng/ml) of the neutralizing activity of the mutants against LT was 7.94 ng/mL.

Question: And the Enhancement of the neutralizing activity against LT [1]?
Answer: Its Enhancement of the neutralizing activity against LT is 277%.

Question: And the EC50(ng/ml) of the neutralizing activity of the mutants (Example 9: against the cytotoxicity of TNFα) [2]?
Answer: Its EC50(ng/ml) of the neutralizing activity of the mutants (Example 9: against the cytotoxicity of TNFα) is 5.68 ng/mL.

Question: What about the Enhancement of the neutralizing activity against TNFα [2] of the same molecule?
Answer: Its Enhancement of the neutralizing activity against TNFα is 131%.

Question: And the neutralizing activity to TNFα relative to wild-type soluble TNFRp75: Fc (ENBREL from AMGEN) (times that of wild-type TNFRp75: Fc) [2]?
Answer: Its neutralizing activity to TNFα relative to wild-type soluble TNFRp75: Fc (ENBREL from AMGEN) (times that of wild-type TNFRp75: Fc) is 1.33.

Question: What does the source list for TNFRp75 (E92N, W89F): Fc fusion protein?
Answer: EC50(ng/ml) of the neutralizing activity of the mutants against LT [1]: 7.56 ng/mL; Enhancement of the neutralizing activity against LT [1]: 308%; EC50(ng/ml) of the neutralizing activity of the mutants (Example 9: against the cytotoxicity of TNFα) [2]: 1020 ng/mL; Enhancement of the neutralizing activity against TNFα [2]: 128%

Question: With TNFRp75 (E92S, W89Y): Fc fusion protein as the molecule, how does the EC50(ng/ml) of the neutralizing activity of the mutants against LT [1] read?
Answer: Its EC50(ng/ml) of the neutralizing activity of the mutants against LT is 6.28 ng/mL.

Question: And the Enhancement of the neutralizing activity against LT [1]?
Answer: Its Enhancement of the neutralizing activity against LT is 368%.

Question: And the EC50(ng/ml) of the neutralizing activity of the mutants (Example 9: against the cytotoxicity of TNFα) [2]?
Answer: Its EC50(ng/ml) of the neutralizing activity of the mutants (Example 9: against the cytotoxicity of TNFα) is 12.2 ng/mL.

Question: What about the Enhancement of the neutralizing activity against TNFα [2] of the same molecule?
Answer: The Enhancement of the neutralizing activity against TNFα was 133%.

Question: Which “EC50 of the neutralizing activity on LT” value [3] does the source give for B1 here?
Answer: Its value is 22.3 ng/mL.

Question: How did the Kd [4] turn out when B2 was run?
Answer: The Kd was 134 pM.

Question: What about the koff [4] of the same molecule?
Answer: The koff was 6.99e-07 s⁻¹.

Question: What about the kon [4] of the same molecule?
Answer: Its kon is 5230 M⁻¹ s⁻¹.
